In publication PMC8844856, “Structural basis of cyclic oligoadenylate binding to the transcription factor Csa3 outlines cross talk between type III and type I CRISPR systems” (The Journal of Biological Chemistry, 2022):
Entries after “also recorded” stand apart in the source; their conditions may differ.

Legend:
His6-Csa3Sso (WT) [1] = molecular target: T1, His6-Csa3Sso (WT) (Saccharolobus solfataricus, UniProt Q97Y88); assay: Microscale thermophoresis (MST) binding of cOA ligands to wildtype Csa3Sso; settings: MST
T1 construct: made in house; host or cells: E. coli BL21(DE3)-pLysS
T1 sequence (Q97Y88 1-237): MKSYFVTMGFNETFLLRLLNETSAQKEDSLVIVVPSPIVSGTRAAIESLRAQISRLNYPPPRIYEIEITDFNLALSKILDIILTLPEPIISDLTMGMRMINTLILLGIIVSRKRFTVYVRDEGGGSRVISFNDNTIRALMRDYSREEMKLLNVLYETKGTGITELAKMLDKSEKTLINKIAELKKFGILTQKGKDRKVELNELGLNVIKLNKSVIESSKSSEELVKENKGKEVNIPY
Experimental: The ligand-binding specificity of Csa3Sso (WT) and the role of Csa3Sso residues in ligand binding were determined by microscale Thermophoresis (MST). Wildtype or mutant His6-Csa3Sso (200 nM) was fluorescently labeled in 2× binding buffer (10 mM Na/K phosphate, pH 5.8, 10 mM MgCl2, 25 mM NaCl, and 0.05% Tween 20) using 100 nM RED-Tris NTA His-Tag labeling dye (Nanotemper Technologies, Inc) and incubated in the dark at room temperature for 30 min. Two millimolar stocks of synthetic ligands including cA3, cA4, and cA6 (Biolog Life Science Institute) or linear ribonucleotide 5′-rCrArArArA-3′ (Bio-Synthesis Inc) were serially diluted in a 1:1 ratio with nuclease-free water. The labeled proteins were then mixed with ligands in a 1:1 ratio. Only cA4 was used in the MST experiments with the Csa3Sso mutants (2 mM stocks of cA4 were used for F10A, F14A, G96A, and R98A mutants, and 20 μM stocks were used for E122A and E122Q mutants). The mixtures of proteins and ligands were incubated in the dark at room temperature for 30 min. The precipitated material was removed by centrifugation at 6000 rpm for 5 min. The supernatants were then loaded into Monolith NT.115 Series Premium capillaries in triplicate, and the thermophoresis was detected with 40% excitation power and 40% IR-laser power for an on-time of 20 s at 25 °C.
(§1) The binding affinities of oligonucleotides and PCas4a to Csa3Sso (WT and mutants) were analyzed according to the law of mass action in a standard fitting mode of MO.Affinity analysis software (version 2.3).

His6-Csa3Sso (WT) [2] = molecular target: T1, His6-Csa3Sso (WT); assay: MST binding of PCas4a promoter DNA to Csa3Sso with or without cOAs; settings: 50-fold excess of cOA (25 μM)
Experimental: The MST experiment and data analysis for ligand-induced changes in Csa3Sso binding affinity with PCas4a was performed as mentioned above except for the following: 1 μM of His6-Csa3Sso (WT) was fluorescently labeled in 2× binding buffer with 40 nM RED-Tris NTA His-Tag labeling dye in the absence or presence of cA4 or cA6. The labeling mixtures were incubated in the dark at room temperature for 30 min. A 50 μM stock of PCas4a was serially diluted in 1:1 ratios with nuclease-free water. The labeled proteins ± ligands were then mixed with diluted PCas4a in a 1:1 ratio and incubated in the dark at room temperature for 30 min. The supernatants obtained after removal of precipitated material were then loaded into Monolith NT.115 Series Premium capillaries in triplicate, and the thermophoresis was detected with 100% excitation power and 60% IR-laser power for an on-time of 20 s at 25 °C.
as §1

Csa3Sso WT [3] = molecular target: T2, Csa3Sso WT (Saccharolobus solfataricus P2, UniProt Q97Y88 1-237); assay: EMSA; no cA4; faint shifted band; MST buffer not given in the material; Cy5 EMSA: 50 nM probe, 0.5-25 uM protein, 5% acrylamide TBE, 4 C; agarose EMSA: 2% TBE, room temperature; crystals: 20 mM; settings: protein: recombinant; tags: N-terminal His6; chain copies: 2; label: 5' Cy5 on top strand; blunt
T2 sequence: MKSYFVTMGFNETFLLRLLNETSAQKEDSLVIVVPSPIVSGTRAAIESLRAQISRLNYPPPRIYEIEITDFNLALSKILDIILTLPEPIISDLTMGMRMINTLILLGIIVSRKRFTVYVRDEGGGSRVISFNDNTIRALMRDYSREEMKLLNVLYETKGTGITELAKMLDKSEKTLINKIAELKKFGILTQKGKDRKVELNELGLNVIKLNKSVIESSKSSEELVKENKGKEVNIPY

Csa3Sso WT [4] = molecular target: T2, Csa3Sso WT; assay: MST; no cOA; precipitate removed; MST buffer not given in the material; Cy5 EMSA: 50 nM probe, 0.5-25 uM protein, 5% acrylamide TBE, 4 C; agarose EMSA: 2% TBE, room temperature; crystals: 20 mM; settings: protein: recombinant; tags: N-terminal His6; chain copies: 2; blunt
Csa3Sso WT [5] = molecular target: T2, Csa3Sso WT; assay: MST; apparent Kd; MST buffer not given in the material; Cy5 EMSA: 50 nM probe, 0.5-25 uM protein, 5% acrylamide TBE, 4 C; agarose EMSA: 2% TBE, room temperature; crystals: 20 mM; settings: protein: recombinant; tags: N-terminal His6; chain copies: 2; cyclic; no ends
Csa3Sso WT [6] = molecular target: T2, Csa3Sso WT; assay: MST; only nonspecific signal at >=250 uM; MST buffer not given in the material; Cy5 EMSA: 50 nM probe, 0.5-25 uM protein, 5% acrylamide TBE, 4 C; agarose EMSA: 2% TBE, room temperature; crystals: 20 mM; settings: protein: recombinant; tags: N-terminal His6; chain copies: 2; cyclic; no ends
[7] = molecular target: the molecule itself; assay: SEC; Superdex 200 16/70 gel filtration in buffer F (20 mM Tris-HCl pH 8.0, 50 mM NaCl), against globular standards
[8] = molecular target: the molecule itself; assay: AUC; sedimentation velocity, 20 °C, 40,000 rpm, 10 mM Na/KPO4 pH 5.8, 10 mM NaCl, 25 mM MgCl2; without cA4

Nc1ncnc2c1ncn2[C@@H]1O[C@@H]2COP(=O)(O)O[C@H]3[C@@H](O)[C@H](n4cnc5c(N)ncnc54)O[C@@H]3COP(=O)(O)O[C@H]3[C@@H](O)[C@H](n4cnc5c(N)ncnc54)O[C@@H]3COP(=O)(O)O[C@H]2[C@H]1O [cA3]
specific binding to His6-Csa3Sso (His6-Csa3Sso (WT) [1]): lack of Csa3Sso binding

Nc1ncnc2c1ncn2[C@@H]1O[C@@H]2COP(=O)(O)O[C@H]3[C@@H](O)[C@H](n4cnc5c(N)ncnc54)O[C@@H]3COP(=O)(O)O[C@H]3[C@@H](O)[C@H](n4cnc5c(N)ncnc54)O[C@@H]3COP(=O)(O)O[C@H]3[C@@H](O)[C@H](n4cnc5c(N)ncnc54)O[C@@H]3COP(=O)(O)O[C@H]3[C@@H](O)[C@H](n4cnc5c(N)ncnc54)O[C@@H]3COP(=O)(O)O[C@H]3[C@@H](O)[C@H](n4cnc5c(N)ncnc54)O[C@@H]3COP(=O)(O)O[C@H]2[C@H]1O [cA6]
specific binding to His6-Csa3Sso (His6-Csa3Sso (WT) [1]): only cA4 exhibited a specific low micromolar binding
effect of excess cOA on PCas4a binding affinity of Csa3Sso (His6-Csa3Sso (WT) [2]): no significant effect; also recorded: did not significantly change

B1: Cy5-PCas4a (dsDNA)
DNA 1: AAAGAATTCCCGAATTTACTAGGGAT
DNA 2: ATCCCTAGTAAATTCGGGAATTCTTT
modifications: 5' amino-modified top strand
binding result (Csa3Sso WT [3]): binds

B2: PCas4a (dsDNA)
DNA 1: AAAGAATTCCCGAATTTACTAGGGAT
DNA 2: ATCCCTAGTAAATTCGGGAATTCTTT
Kd (Csa3Sso WT [4]): 1.62 ± 0.17 µM

AAAA (ssRNA, cyclic, 3'-5' linked tetra-adenylate (CHEBI:142457)) [cA4]
Kd (Csa3Sso WT [5]): 5.8 ± 0.03 µM

AAA (ssRNA, cyclic tri-adenylate) [cA3]
binding result (Csa3Sso WT [6]): no binding

B3: Saccharolobus solfataricus Csa3 (Csa3Sso), N-terminally His6-tagged, wildtype (natural protein, UniProt Q97Y88 1-237, looked up)
chain: MKSYFVTMGFNETFLLRLLNETSAQKEDSLVIVVPSPIVSGTRAAIESLRAQISRLNYPPPRIYEIEITDFNLALSKILDIILTLPEPIISDLTMGMRMINTLILLGIIVSRKRFTVYVRDEGGGSRVISFNDNTIRALMRDYSREEMKLLNVLYETKGTGITELAKMLDKSEKTLINKIAELKKFGILTQKGKDRKVELNELGLNVIKLNKSVIESSKSSEELVKENKGKEVNIPY
notes: Csa3 (CRISPR Apern 3, a Csa3a homolog) of Saccharolobus solfataricus strain P2, Sso1445, UniProtKB Q97Y88; full-length; the His6-tagged construct has 248 a.a; (MW theor 28.1 kDa); Synthetic gene in pBB75 (or pET21b); also called His6-Csa3Sso; Csa3Sso (WT); source: E. coli BL21(DE3)-pLysS, purified (lysate heated at 65 °C, HisTrap, Mono-Q flow-through, Cibacron Blue, Superdex 200); not shown: …
stoichiometry N [7]: 2

B4: Csa3Sso-R98A mutant, N-terminally His6-tagged (natural protein, Saccharolobus solfataricus, UniProt Q97Y88 1-237, looked up)
chain: MKSYFVTMGFNETFLLRLLNETSAQKEDSLVIVVPSPIVSGTRAAIESLRAQISRLNYPPPRIYEIEITDFNLALSKILDIILTLPEPIISDLTMGMAMINTLILLGIIVSRKRFTVYVRDEGGGSRVISFNDNTIRALMRDYSREEMKLLNVLYETKGTGITELAKMLDKSEKTLINKIAELKKFGILTQKGKDRKVELNELGLNVIKLNKSVIESSKSSEELVKENKGKEVNIPY
notes: Csa3 of Saccharolobus solfataricus strain P2, Sso1445, UniProtKB Q97Y88; full-length, with R98A; Synthetic gene in pBB75; source: E. coli BL21(DE3)-pLysS, purified (lysate heated at 65 °C, HisTrap, Mono-Q flow-through, Cibacron Blue, Superdex 200); not shown: His6, N-terminal, kept
stoichiometry N [8]: 2
